According to publication PMC5972394:

Target: Mycobacterium thermoresistible (Mth) IMPDH ΔCBS (Mycobacterium thermoresistible)
Test: crystal structure

## Mycobacterium thermoresistible (Mth) IMPDH ΔCBS (enzyme)
  stoichiometry N: 4
